Data reported in patent publication US20040161776A1.
Several values for one entry are separate records, joined by “and”; a condition that tells them apart may be missing. Equal values may be shown once. Blank lines part the entries; values can stand above or below the substance they belong to.

Key:
[1] = biological target: prostate specific membrane antigen (PSMA), full-length human (human) (UniProt Q04609); assay: average, PSMA-3T3 cells
[2] = biological target: prostate specific membrane antigen (PSMA), full-length human (human) (UniProt Q04609); assay: radiolabeled mAb bound to PSMA-3T3 cell pellets
[3] = biological target: prostate specific membrane antigen (PSMA), full-length human (human) (UniProt Q04609)
[4] = biological target: prostate specific membrane antigen (PSMA), full-length human (human) (UniProt Q04609); assay: fraction of 177Lu labeled control antibody bound to cells, column PSMA; column 3T3 (no PSMA): 0.7
[5] = biological target: prostate specific membrane antigen (PSMA), full-length human (human) (UniProt Q04609); assay: competition on PSMA-3T3 cells; unmodified mJ591 varied, competitor 111In radiolabeled 4.40
[6] = biological target: prostate specific membrane antigen (PSMA), full-length human (human) (UniProt Q04609); assay: fraction of 177Lu labeled antibody bound to cells, column PSMA; column 3T3 (no PSMA): 1.7

prostate specific membrane antigen (PSMA), full-length human (human), sequence (Q04609 whole entry): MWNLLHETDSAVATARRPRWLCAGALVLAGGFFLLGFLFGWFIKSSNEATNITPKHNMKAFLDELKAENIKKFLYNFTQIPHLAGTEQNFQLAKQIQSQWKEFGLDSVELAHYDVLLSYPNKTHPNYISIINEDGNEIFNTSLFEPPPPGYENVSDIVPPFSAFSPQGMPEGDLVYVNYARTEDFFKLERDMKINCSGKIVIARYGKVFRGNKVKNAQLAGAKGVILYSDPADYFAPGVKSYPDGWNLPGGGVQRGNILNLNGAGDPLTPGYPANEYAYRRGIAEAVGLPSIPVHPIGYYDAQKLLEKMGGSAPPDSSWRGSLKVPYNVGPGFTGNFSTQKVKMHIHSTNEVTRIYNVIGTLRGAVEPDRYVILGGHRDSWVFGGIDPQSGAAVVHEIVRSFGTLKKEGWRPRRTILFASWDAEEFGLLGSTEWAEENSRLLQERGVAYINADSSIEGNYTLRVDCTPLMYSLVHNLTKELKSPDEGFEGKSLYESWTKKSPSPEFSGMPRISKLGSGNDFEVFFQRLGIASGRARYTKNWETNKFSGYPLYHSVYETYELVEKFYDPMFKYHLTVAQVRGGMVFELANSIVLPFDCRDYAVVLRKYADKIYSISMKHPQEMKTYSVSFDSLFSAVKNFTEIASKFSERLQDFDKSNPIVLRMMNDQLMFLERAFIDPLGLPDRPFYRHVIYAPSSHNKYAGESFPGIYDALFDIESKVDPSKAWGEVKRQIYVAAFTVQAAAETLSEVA
mJ591 (antibody), sequence (VH): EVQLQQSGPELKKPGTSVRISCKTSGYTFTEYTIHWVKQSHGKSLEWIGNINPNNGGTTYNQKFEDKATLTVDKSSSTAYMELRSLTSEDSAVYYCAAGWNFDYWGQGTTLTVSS
mJ591 (antibody), sequence (VL): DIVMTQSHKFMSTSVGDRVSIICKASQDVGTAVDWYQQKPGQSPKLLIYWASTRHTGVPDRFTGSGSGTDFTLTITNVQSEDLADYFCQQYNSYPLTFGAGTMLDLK

Immunoreactivity (%) [1]: 56.7%
Immunoreactivity (%) [2]: 58.5% and 54.9%
Substance: 111In radiolabeled CHX-A''-DTPA antibody mJ591

PSMA+/PSMA- Ratio of tumor uptake, Mean [3]: 1.16
Cell Based Immunoreactivity (%) [4]: 5.9%
Substance: IgG (antibody)

IC50 (read off the curve) [5]: 3 nM
Substance: mAb J591 (murine) (antibody)

PSMA+/PSMA- Ratio of tumor uptake, Mean [3]: 2.5
Cell Based Immunoreactivity (%) [6]: 46.2%
Substance: mJ591 (antibody)
